Three variants from IntAct's records for PubMed 22000520 can be followed below.

B1: Serine/threonine-protein kinase PknB (Mycobacterium tuberculosis (strain ATCC 25618 / P9WI81 (parent)
chain: MTTPSHLSDRYELGEILGFGGMSEVHLARDLRLHRDVAVKVLRADLARDPSFYLRFRREAQNAAALNHPAIVAVYDTGEAETPAGPLPYIVMEYVDGVTLRDIVHTEGPMTPKRAIEVIADACQALNFSHQNGIIHRDVKPANIMISATNAVKVMDFGIARAIADSGNSVTQTAAVIGTAQYLSPEQARGDSVDARSDVYSLGCVLYEVLTGEPPFTGDSPVSVAYQHVREDPIPPSARHEGLSADLDAVVLKALAKNPENRYQTAAEMRADLVRVHNGEPPEAPKVLTDAERTSLLSSAAGNLSGPRTDPLPRQDLDDTDRDRSIGSVGRWVAVVAVLAVLTVVVTIAINTFGGITRDVQVPDVRGQSSADAIATLQNRGFKIRTLQKPDSTIPPDHVIGTDPAANTSVSAGDEITVNVSTGPEQREIPDVSTLTYAEAVKKLTAAGFGRFKQANSPSTPELVGKVIGTNPPANQTSAITNVVIIIVGSGPATKDIPDVAGQTVDVAQKNLNVYGFTKFSQASVDSPRPAGEVTGTNPPAGTTVPVDSVIELQVSKGNQFVMPDLSGMFWVDAEPRLRALGWTGMLDKGADVDAGGSQHNRVVYQNPPAGTGVNRDGIITLRFGQ
partner: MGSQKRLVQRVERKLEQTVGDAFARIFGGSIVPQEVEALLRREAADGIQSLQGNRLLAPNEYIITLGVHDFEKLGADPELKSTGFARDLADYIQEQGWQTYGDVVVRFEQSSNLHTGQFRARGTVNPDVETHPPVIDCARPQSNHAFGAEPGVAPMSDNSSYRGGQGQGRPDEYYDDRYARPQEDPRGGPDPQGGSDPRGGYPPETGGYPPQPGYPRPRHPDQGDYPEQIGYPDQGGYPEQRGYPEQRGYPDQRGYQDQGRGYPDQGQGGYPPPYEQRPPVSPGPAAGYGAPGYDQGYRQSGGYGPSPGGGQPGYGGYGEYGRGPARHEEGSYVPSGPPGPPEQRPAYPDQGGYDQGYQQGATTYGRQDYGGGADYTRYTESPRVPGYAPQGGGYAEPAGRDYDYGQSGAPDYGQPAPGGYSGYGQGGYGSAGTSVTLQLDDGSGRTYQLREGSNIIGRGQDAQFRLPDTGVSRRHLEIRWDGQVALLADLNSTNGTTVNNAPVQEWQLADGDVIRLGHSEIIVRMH
B2: FHA domain-containing protein FhaA (Mycobacterium tuberculosis (strain ATCC 25618 / P71590 (parent)
chain: B1 partner
partner: B1 chain

The first assay covers variants of B1. Conditions: with fhaa_myctu fhaA.
T294A: the “effect of a mutation on the interaction” value is on record as “increasing interaction”. Take T309A: the “effect of a mutation on the interaction” value is “increasing interaction”.

Variants of B2 are the subject of another assay. Conditions: with pknb_myctu pknB.
As to T116A, the “effect of a mutation on the interaction” value is “disrupting interaction”.
